From patent publication US6440696 (NEW ENGLAND MEDICAL CENTER, dated 2002)

T1: pGAD10 two-hybrid clone encoding the 476 carboxyl-terminal amino acids of E6-AP (human, UniProt Q05086 400-875)
T1 construct: domain: 476 carboxyl-terminal amino acids; also called one weakly positive clone
T1 sequence: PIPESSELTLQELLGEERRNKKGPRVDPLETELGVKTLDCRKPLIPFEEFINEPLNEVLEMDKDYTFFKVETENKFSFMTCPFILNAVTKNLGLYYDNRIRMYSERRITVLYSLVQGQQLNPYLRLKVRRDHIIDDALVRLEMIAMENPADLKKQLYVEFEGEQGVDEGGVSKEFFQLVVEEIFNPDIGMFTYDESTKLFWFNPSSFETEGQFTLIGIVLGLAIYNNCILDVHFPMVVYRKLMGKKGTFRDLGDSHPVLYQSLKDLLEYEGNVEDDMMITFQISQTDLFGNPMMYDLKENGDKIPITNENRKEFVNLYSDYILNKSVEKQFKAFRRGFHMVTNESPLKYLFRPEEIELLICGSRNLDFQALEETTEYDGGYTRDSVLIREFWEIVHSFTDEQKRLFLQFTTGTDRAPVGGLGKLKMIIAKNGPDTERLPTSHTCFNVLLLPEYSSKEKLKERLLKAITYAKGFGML

B1: pGAD10 two-hybrid clone encoding the 194 carboxyl terminal amino acid residues of E6TP1 (other)
chain: NDVLFSSTYPSLPKSLPLRRPSYTLGMKSLHGEFSASDSSLTDIQETRRQPMPDPGLMPLPDTAADLDWSNLVDAAKAYEVQRASFFAASDENHRPLSAASNSDQLEDQALAQMKPYSSSKDSSPTLASKVDQLEGMLKMLREDLKKEKEDKAHLQAEVQHLREDNLRLQEESQNASDKLKKFTEWVFNTIDMS
notes: also called set of eleven identical strongly positive clones
B2: HPV16 E6 protein (other)
chain: MFQDPQERPRKLPQLCTELQTTIHDIILECVYCKQQLLRREVYDFAFRDLCIVYRDGNPYAVCDKCLKFYSKISEYRHYCYSLYGTTLEQQYNKPLCDLLIRCINCQKPLCPEEKQRHLDKKQRFHNIRGRWTGRCMSCCRSSRTRRETQL
notes: also called high-risk HPV16 E6; wild-type E6
B3: pGAD10 two-hybrid clone encoding the 378 carboxyl terminal amino acid residues of E6TP1 (other)
chain: SSRHSASPVVFTSARSSPKEELHPAAPSQLAPSFSSSSSSSSGPRSFYPRQGATSKYLIGWKKPEGTINSVGFMDTRKRHQSDGNEIAHTRLRASTRDLRASPKPTSKSTIEEDLKKLIDLESPTPESQKSFKFHALSSPQSPFPSTPTSRRALHRTLSDESIYNSQREHFFTSRASLLDQALPNDVLFSSTYPSLPKSLPLRRPSYTLGMKSLHGEFSASDSSLTDIQETRRQPMPDPGLMPLPDTAADLDWSNLVDAAKAYEVQRASFFAASDENHRPLSAASNSDQLEDQALAQMKPYSSSKDSSPTLASKVDQLEGMLKMLREDLKKEKEDKAHLQAEVQHLREDNLRLQEESQNASDKLKKFTEWVFNTIDMS
notes: also called one distinct strongly positive clone; longer yeast two-hybrid cDNA clone
B4: HPV6 E6 protein (other)
chain: MESANASTSATTIDQLCKTFNLSMHTLQINCVFCKNALTTAEIYSYAYKHLKVLFRGGYPYAACACCLEFHGKINQYRHFDYAGYATTVEEETKQDILDVLIRCYLCHKPLCEVEKVKHILTKARFIKLNCTWKGRCLHCWTTCMEDMLP
notes: also called low-risk HPV6 E6
B5: HPV11 E6 protein (other)
chain: MESKDASTSATSIDQLCKTFNLSLHTLQIQCVFCRNALTTAEIYAYAYKNLKVVWRDNFPFAACACCLELQGKINQYRHFNYAAYAPTVEEETNEDILKVLIRCYLCHKPLCEIEKLKHILGKARFIKLNNQWKGRCLHCWTTCMEDLLP
B6: human lamin/GAL4 DNA binding domain fusion protein (pLam 5') (other)
chain: MKLLSSIEQACDICRLKKLKCSKEKPKCAKCLKNNWECRYSPKTKRSPLTRAHLTEVESRLERLEQLFLLIFPREDLDMILKMDSLQDIKALLTGLFVQDNVNKDAVTDRLASVETDMPLTLRQHRISATSSSEESSNKGQRQLTVSSEEVVSREVSGIKAAYEAELGDARKTLDSVAKERARLQLELSKVREEFKELKARNTKKEGDLIAAQARLKDLEALLNSKEAALSTALSEKRTLEGELHDLRGQVAKLEAALGEAKKQLQDEMLRRVDAENRLQTMKEELDFQKNIYSEELRETKRRHETRLVEID
notes: Control bait from Clontech; also called human lamin fused to Gal4 in pGBT9
B7: pGBT9-E6 bait (GAL4 fused to HPV16 E6 residues 2-158) (other)
chain: MKLLSSIEQACDICRLKKLKCSKEKPKCAKCLKNNWECRYSPKTKRSPLTRAHLTEVESRLERLEQLFLLIFPREDLDMILKMDSLQDIKALLTGLFVQDNVNKDAVTDRLASVETDMPLTLRQHRISATSSSEESSNKGQRQLTVSHQKRTAMFQDPQERPRKLPQLCTELQTTIHDIILECVYCKQQLLRREVYDFAFRDLCIVYRDGNPYAVCDKCLKFYSKISEYRHYCYSLYGTTLEQQYNKPLCDLLIRCINCQKPLCPEEKQRHLDKKQRFHNIRGRWTGRCMSCCRSSRTRRETQL
notes: also called pGB9-E6
B8: murine p53/GAL4 DNA binding domain fusion protein (pVA3) (other)
chain: MKLLSSIEQACDICRLKKLKCSKEKPKCAKCLKNNWECRYSPKTKRSPLTRAHLTEVESRLERLEQLFLLIFPREDLDMILKMDSLQDIKALLTGLFVQDNVNKDAVTDRLASVETDMPLTLRQHRISATSSSEESSNKGQRQLTVSPVTETPGPVAPAPATPWPLSSFVPSQKTYQGNYGFHLGFLQSGTAKSVMCTYSPPLNKLFCQLAKTCPVQLWVSATPPAGSRVRAMAIYKKSQHMTEVVRRCPHHERCSDGDGLAPPQHLIRVEGNLYPEYLEDRQTFRHSVVVPYEPPEAGSEYTTIHYKYMCNSSCMGGMNRRPILTIITLEDSSGNLLGRDSFEVRVCACPGRDRRTEEENFRKKEVLCPELPPGSAKRALPTCTSASPPQKKKPLDGEYFTLKIRGRKRFEMFRELNEALELKDAHATEESGDSRAHSSYLKTKKGQSTSRHKKTMVKKVGPDSD
notes: Control bait from Clontech; also called murine p53 fused to Gal4 in pGBT9

Columns and labels:
[1] = target: B6; assay: yeast two-hybrid, control bait
[2] = target: B8; assay: yeast two-hybrid, control bait
[3] = target: B7; assay: yeast two-hybrid: growth on Trp-, Leu-, His- medium and beta-gal activity
GST = target: T2, GST (UniProt P08515 1-218 = GST); assay: GST pull-down of in vitro translated 35S-labelled E6
T2 construct: Negative control; also called GST alone

[4] = target: B3; assay: yeast two-hybrid, control bait
[5] = target: T1, pGAD10 two-hybrid clone encoding the …; assay: yeast two-hybrid, control bait
[6] = target: B3; assay: yeast two-hybrid: growth on Trp-, Leu-, His- medium and beta-gal activity

T2 sequence (P08515 whole entry): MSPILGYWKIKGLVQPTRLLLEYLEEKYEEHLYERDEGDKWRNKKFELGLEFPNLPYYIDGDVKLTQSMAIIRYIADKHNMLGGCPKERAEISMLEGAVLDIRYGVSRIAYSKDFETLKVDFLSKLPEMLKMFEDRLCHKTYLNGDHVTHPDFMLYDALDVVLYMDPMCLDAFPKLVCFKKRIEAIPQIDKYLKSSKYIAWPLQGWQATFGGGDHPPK

B1: no binding [1]; no binding [2]; binds [3].

B2: no binding (tested: 1 µg GST fusion protein) (GST).

B3: no binding [2].

B4: no binding (tested: 1 µg GST fusion protein) (GST).

B5: no binding (tested: 1 µg GST fusion protein) (GST).

B6: no binding [4]; no binding [5].

B7: binds [6].

B8: no binding [5].
